Reference: publication PMC7758071
“And” between values parts separate entries of the source, which are not always exact repeats. Identical values can stand only once.

Target: Chinese hamster BiP, wild type, with an N-terminal His6-tag (UK173) (Chinese hamster) (UniProt G3I8R9)
Assay: SEC; 40 µM BiP with 1 mM ADP, 20 min at 24°C; SEC-3 HPLC column, 50 mM HEPES-KOH pH 7.4, 150 mM KCl, 10 mM MgCl2, 26°C; A230

stoichiometry N: 2 and 3
Substance: Chinese hamster BiP, wild type, with an N-terminal His6-tag (UK173) (from UniProt G3I8R9 19-654) (natural protein)
